Experimental data reported in patent US8497352B2, “Use of Wnt5-α peptide derivates for the treatment of melanoma and gastric cancer” (Wntresearch AB, priority 2008, dated 2013).

Experiments:
Type in all cases: cell-based, human
A2058 melanoma cells [1] = assay: Wound-healing assay (migration), A2058 cells; conditions: 0.2 μg/ml Wnt-5a, serum-free medium
Protocol: Cells were plated in 12 well plates and allowed to grow into a confluent layer in complete RPMI (for A2058 cells) or complete McCoy's 5A medium (for HTB63 cells). As indicated, cells were pre-incubated with the Box5 peptide (100 μM) or control solvent for 40 min with continuous agitation. A wound was then inflicted by making a scratch through the confluent layer of cells with a pipette tip. During the migration period of the assay, cells were incubated either in serum-free medium or in the case of HTB63 cells in their own serum-free-conditioned medium collected from cells cultured for 48 h and used within 2 days after collection. The exact conditions of each experiment are described above. To avoid loss of activity, cell medium was changed after 24 hours. A picture for each scratch was taken in the same area of cells at 0, 16, 24, 40 and 48 hours, and wound healing was measured as percentage of wound area closed. For each experimental condition wound healing was analysed in triplicate. All data were based on 3 to 8 separate experiments as indicated.

PKC = assay: MARCKS phosphorylation (PKC activity) in A2058 cells, Western blot; conditions: rWnt-5a 0.2 μg/ml
Protocol: The cells were either directly lysed in 1× Laemmli buffer containing DTT and boiled for 10 min, or lysed in buffer containing 50 mM Tris-HCl (pH 7.5), 1% Triton X-100, 100 mM NaCl, 10 mM MgCl2, 20% glycerol, 1 mM Na3VO4, and protease inhibitors (20 μg/ml aprotinin, 1 μg/ml leupeptin, 2.5 mM benzamidine, and 2 mM pefabloc). Cell treated with lysis buffer were centrifuged at 15,000 rpm for 5 min at 4° C. The protein content in each sample was determined and adjusted to ensure equal loading of protein in each lane. Thereafter, 50 mM DTT and 5× concentrated Laemmli buffer was added and the samples boiled for 5 min. The samples were separated by SDS polyacrylamide gel electrophoresis and subsequently transferred to PVDF membranes. For immunoblotting the membranes were blocked in PBS supplemented with 0.2% Tween 20 and 1% non-fat milk for Wnt-5a or 3% non-fat milk as for all other antibodies for 1 h. […] Finally, the Ab-antigen complexes were detected using enhanced chemiluminescence. […]
In the present study the level of PKC auto-phosphorylation (Weeraratna et al., 2002, Dissanayake et al., 2007) was not estimated since its relation to PKC kinase activity is unclear. Instead the effects of Wnt-5a and Box5 on the phosphorylation of the endogenous PKC substrate MARCKS were analyzed as a direct means of estimating the activity level of PKC in the melanoma cells. […]

A2058 melanoma cells [2] = assay: Cell adhesion assay, A2058 cells; conditions: recombinant Wnt-5a, 60 min adhesion
Protocol: Cells pre-treated and stimulated as described below were detached with Versene, re-suspended in serum-free RPMI medium and samples containing 30,000 cells from each treatment group were added to each well of a 96-well plate The cells were allowed to adhere for 60 min at 37° C. in a humidified atmosphere of 5% carbon dioxide after which the non-adherent cells were washed away with PBS. The adherent cells were fixed in 1% glutaraldehyde for 10 min at room temperature and then stained with 0.5% crystal violet in 20% methanol for 10 min. Finally the stain from each group of cells was dissolved in 50% acetic acid. The amount of dissolved stain from each well was thereafter measured in a Fluostar plate reader (BMG Lab Technologies GmbH, Offenberg, Germany) at 544 nm. The individual samples from each separate experiment were analysed in quadruplicate and the accumulated data were based on 5 separate experiments. The results are illustrated in FIG. 4. • A) A2058 melanoma cells were stimulated with the indicated concentrations of Wnt-5a, detached with Versene and resuspended as single cells in serum-free medium in the presence or absence of recombinant Wnt-5a at the indicated concentrations. Cells were then allowed to adhere in a 96-well plate. After a period of 60 min the non-adherent cells were washed away while the adherent cells were stained and their number determined. This number is presented as a percentage of the control (no Wnt-5a) stimulation (FIG. 4A) • B) A2058 melanoma cells were cultured to confluence in a 12-well plate after which a scratch was inflicted in each well, the medium was changed to fresh serum-free medium lacking (closed circles) or containing 0.2 μg/ml Wnt-5a (open squares). (FIG. 4B) • C) A2058 melanoma cells were cultured to confluence in a 12-well plate after which a scratch was inflicted to each well, the medium was changed to fresh serum-free medium in the absence of any additive (closed circle), the presence of 0.2 μg/ml Wnt-5a alone (open squares) or the presence of 0.2 μg/ml Wnt-5a with 100 μM Box5 (open triangle). (FIG. 4C) • D) HTB63 melanoma cells were cultured to confluence in a 12-well dish after which a scratch was inflicted to each well, the medium was changed to fresh serum-free medium (closed circle), conditioned medium (open squares) or conditioned medium supplemented with 100 μM Box5 (open triangle). To record changes in migration in panels B-D, a picture was taken from each scratch/well from the same area of cells after 0, 16, 24, 40 or 48 hours, and the wound-healing was expressed as percentage of wound area closed. […] The cells were then allowed to invade for 24 hours after which the attached cells on the lower side of the membrane were counted. […]

B1: Wnt-5a: human recombinant Wnt-5a protein from R&D Systems (protein, UniProt P41221 62-380, looked up)
Protein Wnt-5a: IIGAQPLCSQLAGLSQGQKKLCHLYQDHMQYIGEGAKTGIKECQYQFRHRRWNCSTVDNTSVFGRVMQIGSRETAFTYAVSAAGVVNAMSRACREGELSTCGCSRAARPKDLPRDWLWGGCGDNIDYGYRFAKEFVDARERERIHAKGSYESARILMNLHNNEAGRRTVYNLADVACKCHGVSGSCSLKTCWLQLADFRKVGDALKEKYDSAAAMRLNSRGKLVQVNSRFNSPTTQDLVYIDPSPDYCVRNESTGSLGTQGRLCNKTSEGMDGCELMCCGRGYDQFKTVQTERCHCKFHWCCYVKCKKCTEIVDQFVCK
Effect on migration of A2058 cells (A2058 melanoma cells [1]): increased
Effect on phosphorylation of MARCKS (PKC): increased phosphorylation
Concentration giving maximal effect on adhesion of A2058 cells (A2058 melanoma cells [2]): 0.2 µg/mL
Effect on adhesive capacity of A2058 cells (A2058 melanoma cells [2]): enhanced
